The source of these data is patent US20260241018A1 (BIOCYTOGEN PHARMACEUTICALS BEIJING, published 2026).

Assay [1] addresses T1, human 5T4 expressed on CHO-S cells (CHO-h5T4 cells) (human, UniProt Q13641 32-355).
T1 sequence: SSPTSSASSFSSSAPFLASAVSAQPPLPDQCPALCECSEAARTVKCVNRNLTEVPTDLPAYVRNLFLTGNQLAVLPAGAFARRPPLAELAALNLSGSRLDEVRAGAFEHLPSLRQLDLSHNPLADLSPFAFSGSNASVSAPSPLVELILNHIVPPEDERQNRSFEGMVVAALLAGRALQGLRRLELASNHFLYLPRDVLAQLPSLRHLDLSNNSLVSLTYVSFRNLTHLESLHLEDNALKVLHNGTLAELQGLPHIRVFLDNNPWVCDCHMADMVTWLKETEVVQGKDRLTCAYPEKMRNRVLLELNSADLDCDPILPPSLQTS
The experiment in a line: flow cytometry, CHO-h5T4 cells. The method, then:
(§1) CHO-h5T4 cells, CHO-m5T4 cells, CHO-fas5T4 cells or CHO-d5T4 cells were transferred to a 96-well plate at a density of 2×10⁵ cells/well respectively. The anti-5T4 antibodies were added to the 96-well plate, and incubated at 4° C. for 30 min. Then, the cells were incubated with the secondary antibody anti-hlgG-Fc-Alex Flour 647 (RL1-H) (Jackson ImmunoResearch Laboratories, Inc., Cat #: 109-606-170) at 4° C. in the dark for 15 minutes before flow cytometry analysis.
In general terms: A flow cytometer gives signals particle by particle.

Assay [2] concerns the target T2, 5T4 on NCI-H226 cells, NCI-H2030 cells and HCC827 cells (UniProt Q13641 32-420, limits assumed).
T2 construct: whole, on cells
T2 sequence (looked up): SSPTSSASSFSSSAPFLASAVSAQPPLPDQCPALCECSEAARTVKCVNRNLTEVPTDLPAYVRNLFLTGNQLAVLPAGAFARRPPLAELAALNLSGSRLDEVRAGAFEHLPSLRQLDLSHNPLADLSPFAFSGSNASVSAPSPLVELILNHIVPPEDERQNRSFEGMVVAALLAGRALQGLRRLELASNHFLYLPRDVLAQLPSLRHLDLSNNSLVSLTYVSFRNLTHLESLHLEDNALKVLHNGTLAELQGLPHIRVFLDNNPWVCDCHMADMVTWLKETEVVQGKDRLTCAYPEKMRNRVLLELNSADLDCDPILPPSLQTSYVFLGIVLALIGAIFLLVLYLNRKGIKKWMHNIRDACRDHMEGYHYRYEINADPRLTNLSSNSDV
Briefly: flow cytometry on NCI-H2030 cells, Alexa Fluor 647 anti-human IgG Fc secondary antibody, MFI. How it is done:
NCI-H226 cells, NCI-H2030 cells or HCC827 cells were plated in a 96-well plate at a density of 2×10⁵ cells/well. Serially diluted purified anti-5T4 antibody 32G1 or the positive control PF06263507 analog-SI (maximum concentration: 20 μg/mL, 2-fold dilutions, 12 gradients) were added to each well and were incubated at 4° C. for 30 minutes. Then, after one wash with PBS, the cells were incubated with the secondary antibody Alexa Fluor® 647 anti human IgG Fcγ (Jackson ImmunoResearch Laboratories, Inc., Cat #: 109-606-170) at 4° C. for 15 minutes before flow cytometry analysis.
The cells were collected, and the mean fluorescence intensity (MFI) was determined.

Assay [3] has as its target T3, monkey (Macaca fascicularis) 5T4 expressed on CHO-S cells (CHO-fas5T4 cells) (monkey (Macaca fascicularis), UniProt Q4R8Y9 35-355).
T3 construct: also called monkey 5T4
T3 sequence: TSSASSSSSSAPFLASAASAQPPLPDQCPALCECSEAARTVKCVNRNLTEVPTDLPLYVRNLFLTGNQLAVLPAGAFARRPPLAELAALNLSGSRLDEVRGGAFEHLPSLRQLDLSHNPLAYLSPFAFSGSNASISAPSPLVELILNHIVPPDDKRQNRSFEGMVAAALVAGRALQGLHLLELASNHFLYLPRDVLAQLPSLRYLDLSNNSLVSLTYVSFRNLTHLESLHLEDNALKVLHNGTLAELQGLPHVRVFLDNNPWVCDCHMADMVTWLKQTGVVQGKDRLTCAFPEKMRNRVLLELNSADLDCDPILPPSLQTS
The experiment in a line: flow cytometry, CHO-fas5T4 cells. The method, then: as §1

For assay [4], the target named is T4, h5T4-His protein (human, UniProt Q13641 32-355, limits assumed).
T4 construct: also called His-tagged human 5T4 protein; not shown: His tag
T4 sequence (looked up): T1 sequence
Briefly: epitope binding assay, h5T4-His captured; binder = analyte 2; competitor (analyte 1): 31G4. The method, then:
(§2) Epitope binding assays were performed using ForteBio Octet system to determine whether two anti-5T4 antibodies target the same or overlapping epitopes. 1×HBS-EP+buffer (10 mM 4-(2-hydroxyethyl)-1-piperazineethanesulfonic acid (HEPES), 150 mM NaCl, 3 mM ethylenediaminetetraacetic acid (EDTA) and 0.05% P20, pH7.4) diluted from HBS-EP+buffer (10×) was used as the running buffer throughout the experiment. About 50 RU of h5T4-His protein was captured at a flow rate of 10 μL/min, and 200 nM of the tested antibody was injected at a flow rate of 30 μL/min to bind the ligand. Another comparison antibody was injected under the same conditions to determine whether the binding of different antibodies interfered with each other. The binding time was 180 s for each antibody.
(§3) The binding value of each antibody was obtained using Data Analysis HT 12.0. To quantify the interference of one antibody binding to another, a binding ratio was calculated to compare each pair of antibodies. The binding ratio is defined as the binding value of the second antibody (analyte 2), divided by the binding value of the first antibody (analyte 1). […] In general, antibody pairs that interfere with each other have the same or overlapping epitopes.

Assay [5] concerns the target T4, h5T4-His protein. Briefly: epitope binding assay, h5T4-His captured; binder = analyte 2; competitor (analyte 1): 35B12. How it is done: as §2, §3
In assay [6] the target is T4, h5T4-His protein. The experiment in a line: epitope binding assay, h5T4-His captured; binder = analyte 2; competitor (analyte 1): 32G1. How it is done:
as §2, §3

The target in assay [7] is T4, h5T4-His protein. The experiment in a line: epitope binding assay, h5T4-His captured; binder = analyte 2; competitor (analyte 1): 35C6. The method, then:
as §2, §3

B1: 32G1 (antibody, V domains shown)
VH: QVQLVQSGGGLVKPGGSLRLSCVASGFTFSDYYMNWVRQAPGKGLEWISYVGTESIYTYYADTVKGRFTISRDNAKNSLYLQMNSLRAEDTALYYCARARDYNLYGMDVWGQGTTVTVSS
VL: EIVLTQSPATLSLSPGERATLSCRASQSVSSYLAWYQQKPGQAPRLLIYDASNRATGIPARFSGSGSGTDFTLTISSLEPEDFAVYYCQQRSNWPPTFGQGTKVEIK
notes: also called anti-5T4 antibody 32G1
In general, EC50 (read off the curve) refers to the concentration that produces a half-maximal response. Turning to B1, the “Percentage of Positive Cells” value in assay [1] came to 56.5%; in assay [3], 53.2%. Further, the 50% effective concentration (EC50 (read off the curve)) in assay [2] was approximately 0.2 µg/mL. The binding ratio was 0.89 with h5T4-His protein [4], -0.02 with h5T4-His protein [5], 0.01 in the assay with h5T4-His protein [6] and 1.03 with h5T4-His protein [7].
